From PMC6643034, “A knottin scaffold directs the CXC-chemokine–binding specificity of tick evasins” (The Journal of Biological Chemistry, 2019)

B1: CXCL13 (ligand, human, UniProt O43927 23-109, looked up)
chain: VLEVYYTSLRCRCVQESSVFIPRRFIDRIQILPRGNGCPRKEIIVWKKNKSIVCVDPQAEWIQRMMEVLRKRSSSTLPVPVFKRKIP
notes: human CXCL13
B2: P1086_IXORI (natural protein)
chain: GSKGQRASQVSETSITAEFCDTSCTQGTDKTWSGCSGDCFCVHVGNDTEGRCMRWDGDYPSAEEEE
notes: evasin P1086, mature peptide, 66 residues; N-terminal DGG expected after signal peptide cleavage; glycosylated
B3: P942_IXORI (natural protein)
chain: NQLSGPQSSANSNEAVFCDTNCTQGTDEAWSGCRGDCFCVYVGNSTEGRCMMLSGDFDYSTPGAED
notes: evasin P942, mature peptide, 66 residues; N-terminal DGG expected after signal peptide cleavage; glycosylated
B4: P1078_IXORI (natural protein)
chain: GSKGSSAQQSSHDSIKAEFCETNCTMKTGGKWTQCHGGCFCVHVGNETVGRCIKLDGDYDYPSSKHEE
notes: evasin P1078, mature peptide, 68 residues; N-terminal DGG expected after signal peptide cleavage; glycosylated
B5: CXCL11 (ligand, human, UniProt O14625 22-94, looked up)
chain: FPMFKRGRCLCIGPGVKAVKVADIEKASIMYPSNNCDKIEVIITLKENKGQRCLNPKSKQARLIIKKVERKNF
notes: human CXCL11
B6: P1100_IXORI (natural protein)
chain: GSKGSSASQSSDNSVVAKFCDTNCTINEGGKWTECKGGCFCVHVGNETVGRCMKLDGDYDYPSPKPEE
notes: evasin P1100, mature peptide, 68 residues; N-terminal DGG expected after signal peptide cleavage; glycosylated
B7: Evasin 3 (EVA3) (natural protein)
chain: DGGLVSTIESRTSGDGADNFDVVSCNKNCTSGQNECPEGCFCGLLGQNKKGHCYKIIGNLSGEPPVVRR
modifications: also: glycosylated
notes: residues expected at the N terminus after cleavage of the Igκ signal peptide (SignalP 3.0); Evasin-3 (EVA3_RHISA), Rhipicephalus sanguineus, mature peptide; class I founder; also called EVA3_RHISA; WT EVA3; source: HEK293F, transiently transfected, secreted; purified (nickel IMAC, SEC)
B8: P1126_AMBCA (natural protein)
chain: KPQILQRTDKSTDSEWDPQTCPETCIPSKNITCSDGCVCVKLGEEEEGTCFNMTGVDWLGSPSDD
notes: evasin P1126, mature peptide, 65 residues; N-terminal DGG expected after signal peptide cleavage; glycosylated
B9: P1142_AMBCA (natural protein)
chain: KPQILQRTDHSTDSDWDPQMCPETCNPSKNISCSSECLCVTLGGGDETGTCFNMSGVDWLGHAQASDGHNDG
notes: evasin P1142, mature peptide, 72 residues; N-terminal DGG expected after signal peptide cleavage; glycosylated
B10: EVA3_RHISA (natural protein)
chain: LVSTIESRTSGDGADNFDVVSCNKNCTSGQNECPEGCFCGLLGQNKKGHCYKIIGNLSGEPPVVRR
notes: N-terminal DGG expected after signal peptide cleavage; glycosylated; also called evasin 3; Evasin-3

What was measured:
Details in all cases: both partners purified
P1080_IXORI = molecular target: T1, P1080_IXORI (Ixodes ricinus, UniProt A0A090XBL6 20-118); assay: BLI; cross-binding screen on OctetRed; evasin held on a nickel-coated biosensor through its C-terminal His tag; each human chemokine at 300 nM
T1 construct: evasin P1080, mature peptide, 99 residues; N-terminal DGG expected after signal peptide cleavage; glycosylated

CXCL10 [1] = molecular target: T2, CXCL10 (human, UniProt P02778 22-98); assay: as above
T2 construct: human CXCL10

CXCL13 = molecular target: B1; assay: as above
CXCL3 [2] = molecular target: T3, CXCL3 (human, UniProt P19876 35-107); assay: as above
T3 construct: human CXCL3

CXCL2 [3] = molecular target: T4, CXCL2 (human, UniProt P19875 35-107); assay: as above
T4 construct: human CXCL2

CXCL1 [4] = molecular target: T5, CXCL1 (human, UniProt P09341 35-107); assay: as above
T5 construct: human CXCL1

CXCL11 [5] = molecular target: B5; assay: as above
CXCL2 [6] = molecular target: T6, CXCL2 (human, UniProt P19875 35-107); assay: BLI; OctetRed; parental evasins and domain-swap hybrids held by the His tag; titration with chemokine from 600 to 0.4 nM; fit criterion R2 ≥ 0.89, five (in four cases four) concentrations
T6 construct: human CXCL2 of the panel of human chemokines used for biolayer interferometry

CXCL3 [7] = molecular target: T7, CXCL3 (human, UniProt P19876 35-107); assay: as above
T7 construct: human CXCL3 of the panel of human chemokines used for biolayer interferometry

CXCL10 [8] = molecular target: T2, CXCL10; assay: BLI; cross-binding screen on OctetRed; evasin held on a nickel-coated biosensor through its C-terminal His tag; each human chemokine at 300 nM; remark: listed apart in the source
CXCL11 [9] = molecular target: B5; assay: as above; remark: listed apart in the source
CXCL3 [10] = molecular target: T3, CXCL3; assay: as above; remark: listed apart in the source
CXCL2 [11] = molecular target: T4, CXCL2; assay: as above; remark: listed apart in the source
CXCL1 [12] = molecular target: T5, CXCL1; assay: as above; remark: listed apart in the source
CXCL3 [13] = molecular target: T3, CXCL3; assay: as above; remark: listed apart in the source
CXCL2 [14] = molecular target: T4, CXCL2; assay: as above; remark: listed apart in the source
CXCL1 [15] = molecular target: T5, CXCL1; assay: as above; remark: listed apart in the source

Measured: binding result

T1 sequence (A0A090XBL6 20-118): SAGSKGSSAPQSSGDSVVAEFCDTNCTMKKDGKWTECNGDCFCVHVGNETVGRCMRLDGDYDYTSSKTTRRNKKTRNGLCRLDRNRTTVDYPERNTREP

B1
binds: P1080_IXORI

B2
binds: CXCL10 [1] | CXCL13 | CXCL3 [2] | CXCL2 [3] | CXCL1 [4]

B3
binds: CXCL10 [1] | CXCL11 [5] | CXCL13 | CXCL3 [2] | CXCL2 [3] | CXCL1 [4]

B4
binds: CXCL11 [5] | CXCL13 | CXCL3 [2] | CXCL2 [3] | CXCL1 [4]

B5
binds: P1080_IXORI

B6
binds: CXCL10 [1] | CXCL11 [5] | CXCL13 | CXCL3 [2] | CXCL2 [3] | CXCL1 [4]

B7
binds: CXCL2 [6] | CXCL3 [7]

B8
binds: CXCL10 [8] | CXCL11 [9] | CXCL3 [10] | CXCL2 [11] | CXCL1 [12]

B9
binds: CXCL10 [8] | CXCL11 [9] | CXCL3 [10] | CXCL2 [11] | CXCL1 [12]

B10
binds: CXCL3 [13] | CXCL2 [14] | CXCL1 [15]
